Assay results from patent publication US20100221262A1 (Genentech, published 2010).

B1: human Unc5B-Fc (two N-terminal Ig-like domains of Unc5B, amino acid M1 to amino acid V243, fused to the Fc portion of human IgG1) (Fc fusion)
chain: not shown
notes: range 1-243; not shown: Fc portion of human IgG1
B2: human Unc5B-His (two N-terminal Ig-like domains of Unc5B, amino acid M1 to amino acid V243, C-terminal Histidine tag) (receptor)
chain: not shown
notes: range 1-243; The cloned range M1-V243 includes the native signal peptide; also called human Unc5B-His tagged protein; not shown: C-terminal Histidine tag

Columns and labels:
[1] = molecular target: T1, murine Netrin-1-Fc (Laminin V and VI homology domains, amino acid M1 to amino acid P455, fused to the Fc … (murine; human, UniProt O09118 25-455); experiment: SPR (ProteOn), Unc5B-Fc immobilised, mNetrin-1 injected at 250 nM
Experimental: (§1) Binding experiments were performed by surface plasmon resonance SPR measurements on a ProteOn XPR36 instrument (Bio-Rad Laboratories, Inc.) at 25° C. In accordance with common SPR terminology, proteins that are immobilized onto the sensor chip are referred to as ‘ligands’, whereas binding partners injected in solution are referred to as ‘analytes’.
(§2) For binding competition experiments human Unc5B-Fc and Unc5B-His proteins were used as ligands and immobilized at high surface densities (3000-4000 RU) on an activated ProteOn GLC sensor chip (Bio-Rad Laboratories, Inc.). Unc5B antibodies and Netrin-Fc were used as analytes. To perform binding assays, analytes and 1:1 molar mixtures of analytes were injected in PBS, 0.005% v/v Tween-20, pH 7.4, at a flow rate of 100 μl/min and sensorgrams for association and dissociation phases were recorded. Blank surfaces are used for background corrections. Analytes are injected for 240 s and allowed to dissociate for 600 s. […]
(§3) For the SPRs binding experiments Unc5B-His and -Fc proteins were immobilized onto a ProteOn GLC sensor chips and mNetrin-1, Unc5B antibodies or equimolar mixtures of Unc5B antibodies and Netrin-1 were injected as indicated at a concentration of 250 nM. Binding sensorgrams were recorded for association and dissociation reactions. […]

[2] = molecular target: T1, murine Netrin-1-Fc (Laminin V and VI …); experiment: SPR (ProteOn), Unc5B-His immobilised, mNetrin-1 injected at 250 nM
Experimental: as §1, §2, §3

Binder	binding result [1]	binding result [2]
B1	binds	
B2		binds
